According to article PMC6536502, “Structural insights into DNA recognition by AimR of the arbitrium communication system in the SPbeta phage” (Cell Discovery, 2019):
Where a chain is given by its changes, count along the chain named.

What was measured:
Test in all cases: EMSA; EMSA: 25 mM Tris-HCl pH 8.0, 150 mM NaCl, 5 mM MgCl2, 5 mM DTT, 0.1 mg/ml BSA, 10% glycerol, 50 ug/ml salmon sperm DNA, 4 C, 15 min; smFRET: 20 mM phosphate pH
Settings in all cases: protein: recombinant; tags: 6xHis removed by drICE; chain copies: 2
AimR N46D = target: T1, AimR N46D (Bacillus phage SPbeta, UniProt O64094 1-386, N46D)
T1 sequence: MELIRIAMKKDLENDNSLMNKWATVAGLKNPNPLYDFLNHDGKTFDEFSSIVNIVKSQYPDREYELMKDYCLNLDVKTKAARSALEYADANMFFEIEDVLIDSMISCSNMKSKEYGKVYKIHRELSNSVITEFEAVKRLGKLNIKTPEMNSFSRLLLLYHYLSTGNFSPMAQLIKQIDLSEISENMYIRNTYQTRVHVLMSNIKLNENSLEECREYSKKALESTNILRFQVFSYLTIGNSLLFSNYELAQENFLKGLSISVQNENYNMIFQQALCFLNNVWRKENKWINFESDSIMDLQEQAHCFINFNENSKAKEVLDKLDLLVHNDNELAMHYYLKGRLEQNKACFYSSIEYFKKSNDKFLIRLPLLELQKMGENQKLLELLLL

AimR T78D = target: T2, AimR T78D (Bacillus phage SPbeta, UniProt O64094 1-386, T78D)
T2 sequence: T1 sequence with D46N, T78D

AimR N30A = target: T3, AimR N30A (Bacillus phage SPbeta, UniProt O64094 1-386, N30A)
T3 sequence: T1 sequence with N30A, D46N

Measured: binding result

B1: 31 bp aimX-upstream palindromic DNA (dsDNA)
DNA 1: ACTTAAATATTAGGTTTTAATAACATCTAGT
DNA 2: ACTAGATGTTATTAAAACCTAATATTTAAGT
binds: all assays above
